T1: Human OX40 (R&D systems, #3358_OX) (human, UniProt P43489 29-216)
T1 construct: Bought; Several catalogue numbers are given for it; also called human OX40 (R&D Systems, 3388-OX); OX40-Fc (R&D systems, #3358_OX); not shown: Fc part
T1 sequence: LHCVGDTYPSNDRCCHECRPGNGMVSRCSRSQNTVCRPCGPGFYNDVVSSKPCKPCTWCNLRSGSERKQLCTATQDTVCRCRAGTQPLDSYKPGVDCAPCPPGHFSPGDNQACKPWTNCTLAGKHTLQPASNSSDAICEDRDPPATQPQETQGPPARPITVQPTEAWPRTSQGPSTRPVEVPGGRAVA

T2: murine OX40 (murine, UniProt P47741 20-211, limits assumed)
T2 sequence (looked up): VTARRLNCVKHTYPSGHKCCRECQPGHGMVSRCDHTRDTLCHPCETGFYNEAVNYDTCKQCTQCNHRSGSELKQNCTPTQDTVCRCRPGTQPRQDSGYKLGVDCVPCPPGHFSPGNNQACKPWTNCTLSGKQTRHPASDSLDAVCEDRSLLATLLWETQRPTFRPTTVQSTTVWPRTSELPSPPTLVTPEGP

T3: OX40 chimera 1545: human OX40 with mouse domains 1B, 2A and 2B (aa 43-107), on FreeStyle 293-F cells (human; mouse, UniProt P47741 39-103)
T3 construct: domain: 1B, 2A and 2B; Limits derived as for 1544
T3 sequence: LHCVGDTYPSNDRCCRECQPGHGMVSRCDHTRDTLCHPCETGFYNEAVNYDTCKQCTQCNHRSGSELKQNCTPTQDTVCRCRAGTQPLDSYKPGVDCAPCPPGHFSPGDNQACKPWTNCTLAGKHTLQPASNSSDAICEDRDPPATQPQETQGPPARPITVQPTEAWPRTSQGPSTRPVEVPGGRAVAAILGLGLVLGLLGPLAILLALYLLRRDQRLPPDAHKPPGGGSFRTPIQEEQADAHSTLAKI

T4: OX40 chimera 1544: human OX40 with mouse domains 1A, 1B and 2A (aa 30-81), on FreeStyle 293-F cells (human; mouse, UniProt P47741 26-77)
T4 construct: domain: 1A, 1B and 2A
T4 sequence: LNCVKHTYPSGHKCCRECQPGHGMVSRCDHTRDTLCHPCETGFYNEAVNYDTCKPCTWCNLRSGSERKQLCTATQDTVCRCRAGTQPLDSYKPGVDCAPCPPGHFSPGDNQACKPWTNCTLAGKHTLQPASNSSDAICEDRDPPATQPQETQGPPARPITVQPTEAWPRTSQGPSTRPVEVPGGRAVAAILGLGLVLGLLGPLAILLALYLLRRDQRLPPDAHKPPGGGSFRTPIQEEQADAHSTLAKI

T5: construct 84: full length OX40 sequence, on FreeStyle 293-F cells (human, UniProt P43489 29-277)
T5 sequence: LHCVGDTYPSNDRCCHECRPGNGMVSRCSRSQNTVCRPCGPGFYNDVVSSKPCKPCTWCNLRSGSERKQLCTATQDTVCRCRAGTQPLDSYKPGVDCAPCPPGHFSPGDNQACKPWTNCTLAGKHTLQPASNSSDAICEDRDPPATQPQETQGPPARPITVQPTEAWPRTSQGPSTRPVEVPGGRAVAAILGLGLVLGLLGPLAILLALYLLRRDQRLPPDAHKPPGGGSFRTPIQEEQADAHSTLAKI


Experiments:
[1] = biological target: T1, Human OX40 (R&D systems, #3358_OX); experiment: SPR (Biacore), immobilised human OX40
Experimental: Human OX40 (R&D systems, #3358_OX) was immobilized to the Biacore™ sensor chip, CM5, using conventional amine coupling. The tested antibodies and controls (serially diluted ⅓ or ½ 100-2 nM) were analyzed for binding in HBS-P (GE, #BR-1003-68) at a flow rate of […]. The association was followed for 3 minutes and the dissociation for 20 minutes. Regeneration was performed twice using 50 mM NaOH for 60 seconds. The kinetic parameters and the affinity constants were calculated using 1:1 Langmuir model with drifting baseline. […] The kinetic parameters and the affinity constants were calculated using BIAevaluation 4.1 software.

[2] = biological target: T1, Human OX40 (R&D systems, #3358_OX); experiment: ELISA, coated human OX40
Experimental: ELISA plates were coated with human OX40 (R&D Systems, 3388-OX), CD40 (Ancell), or CD137 (R&D Systems) at 0.1 or 0.5 μg/ml. The ELISA plates were washed with PBST and then blocked with PBST+2% BSA for 1h at room temperature and then washed again with PBST. The antibodies were added in dilution series to the ELISA plates for 1 h at room temperature and then washed with PBST. Binding was detected using goat anti human kappa light chain HRP, incubated for 1h at room temperature. SuperSignal Pico Luminescent was used as substrate and luminescence was measured using Fluostar Optima.

murine OX40 = biological target: T2, murine OX40; experiment: ELISA
[3] = biological target: T6, recombinant human CD137-Fc (R&D #838-4B) (human, UniProt Q07011 24-186); experiment: ELISA
T6 construct: Bought; also called Human CD137 (R&D systems); CD137 (R&D Systems); not shown: Fc part, not described

CD40 (Ancell) = biological target: T7, CD40 (Ancell) (UniProt P25942 21-193); experiment: ELISA
T7 construct: also called CD40-Fc (Ancell #504-820); not shown: Fc part, not described

[4] = biological target: T3, OX40 chimera 1545: human OX40 with …; experiment: flow cytometry, 293-F transfectants
Experimental: (§1) The mouse/human chimeras were transiently transfected into FreeStyle 293-F cells (Invitrogen), incubated 48 hours in FreeStyle 293 expression medium (Invitrogen) 37 C, 8% CO₂, 135 rpm. The transfected cells were incubated with human OX40 antibodies, human OX40L (hOX40L, RnD Systems), mouse OX40L (mOX40L, RnD Systems) and controls for 30 min 4° C. and then detected with a-huIgG-PE (Jackson Immunoresearch) 30 min 4° C. Cells were analyzed with FACS Verse (BD Biosciences). Binding to the different chimeric constructs were calculated as relative (mean fluorescence intensity) MFI compared to the binding of the isotype control.

[5] = biological target: T4, OX40 chimera 1544: human OX40 with …; experiment: flow cytometry, 293-F transfectants
Experimental: as §1

[6] = biological target: T5, construct 84: full length OX40 …; experiment: flow cytometry, 293-F transfectants
Experimental: as §1

T7 sequence (P25942 21-193 limits assumed): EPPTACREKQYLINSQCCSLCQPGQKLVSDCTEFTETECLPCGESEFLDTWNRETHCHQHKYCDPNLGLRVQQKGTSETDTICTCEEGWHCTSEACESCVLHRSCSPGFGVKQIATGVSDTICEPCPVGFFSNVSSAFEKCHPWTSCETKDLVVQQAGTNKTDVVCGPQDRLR
T6 sequence (Q07011 24-186 limits assumed): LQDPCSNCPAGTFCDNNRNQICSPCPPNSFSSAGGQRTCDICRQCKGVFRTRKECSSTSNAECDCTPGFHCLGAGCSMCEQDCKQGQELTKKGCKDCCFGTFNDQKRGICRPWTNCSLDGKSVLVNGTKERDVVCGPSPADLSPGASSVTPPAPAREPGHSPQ

| Binder | Kd [1] [nM] | koff [1] [s⁻¹] | kon [1] [M⁻¹ s⁻¹] | EC50 [2] [nM] | binding result (murine OX40) | binding result [3] | binding result (CD40 (Ancell)) | relative MFI vs isotype control [4] | relative MFI vs isotype control [5] | relative MFI vs isotype control [6] |
| --- | --- | --- | --- | --- | --- | --- | --- | --- | --- | --- |
| anti-OX40 antibody 1168/1135 (antibody, V domains shown, Tested as IgG) VH: EVQLLESGGGLVQPGGSLRLSCAASGFTFSGSSMSWVRQAPGKGLEWVSSISYYGGYTYYADSVKGRFTISRDNSKNTLYLQMNSLRAEDTAVYYCARYFPHYYFDYWGQGTLVTVSS VL: not shown | 0.327 | 0.000169 | 518000 | < 1 | no binding | no binding | no binding | 46.6 | 13.2 | 29.6 |
| anti-OX40 antibody 1164/1135 (antibody, V domains shown, Tested as IgG) VH: EVQLLESGGGLVQPGGSLRLSCAASGFTFYGSSMYWVRQAPGKGLEWVSGIYSSGGYTSYADSVKGRFTISRDNSKNTLYLQMNSLRAEDTAVYYCARGVPHGYFDYWGQGTLVTVSS VL: not shown | 0.308 | 7.73e-05 | 251000 | < 1 | no binding | no binding | no binding | 37.3 | 14 | 27.5 |
| anti-OX40 antibody 1482/1483 (antibody, V domains shown, Tested as IgG) VH: EVQLLESGGGLVQPGGSLRLSCAASGFTFSSYAMSWVRQAPGKGLEWVSYISYYSGYTYYADSVKGRFTISRDNSKNTLYLQMNSLRAEDTAVYYCARGYGYLDYWGQGTLVTVSS VL: DIQMTQSPSSLSASVGDRVTITCRASQSISSYLNWYQQKPGKAPKLLIYAASSLQSGVPSRFSGSGSGTDFTLTISSLQPEDFATYYCQQYGSLLTFGQGTKLEIK | 0.753 | 0.000584 | 776000 | < 1 | no binding | no binding | no binding | 44.4 | 8.4 | 24.9 |

More lines, now with the values ahead:

| Kd [1] [nM] | koff [1] [s⁻¹] | kon [1] [M⁻¹ s⁻¹] | EC50 [2] [nM] | binding result (murine OX40) | binding result [3] | binding result (CD40 (Ancell)) | relative MFI vs isotype control [4] | relative MFI vs isotype control [5] | relative MFI vs isotype control [6] | Binder |
| --- | --- | --- | --- | --- | --- | --- | --- | --- | --- | --- |
| 0.811 | 0.00139 | 1.71e+06 | < 1 | no binding | no binding | no binding | 0.9 | 1.5 | 31.4 | anti-OX40 antibody 1524/1525 (antibody, V domains shown, Tested as IgG) VH: EVQLLESGGGLVQPGGSLRLSCAASGFTFGSYYMGWVRQAPGKGLEWVSSIGSYYGYTYYADSVKGRFTISRDNSKNTLYLQMNSLRAEDTAVYYCARHDYGALDYWGQGTLVTVSS VL: DIQMTQSPSSLSASVGDRVTITCRASQSISSYLNWYQQKPGKAPKLLIYAASSLQSGVPSRFSGSGSGTDFTLTISSLQPEDFATYYCQQYGPSGLFTFGQGTKLEIK |
| 0.43 | 0.000187 | 435000 | < 1 | no binding | no binding | no binding | 1.3 | 1.1 | 21.4 | anti-OX40 antibody 1526/1527 (antibody, V domains shown, Tested as IgG) VH: EVQLLESGGGLVQPGGSLRLSCAASGFTFSGYSMYWVRQAPGKGLEWVSGIGYSGYGTYYADSVKGRFTISRDNSKNTLYLQMNSLRAEDTAVYYCARYYFHDYAAYSLDYWGQGTLVTVSS VL: DIQMTQSPSSLSASVGDRVTITCRASQSISSYLNWYQQKPGKAPKLLIYAASSLQSGVPSRFSGSGSGTDFTLTISSLQPEDFATYYCQQYGSDSLLTFGQGTKLEIK |
| 0.463 | 0.0001 | 216000 | < 1 | no binding | no binding | no binding | 40.2 | 7.1 | 29.4 | anti-OX40 antibody 1542/1135 (antibody, V domains shown, Tested as IgG) VH: EVQLLESGGGLVQPGGSLRLSCAASGFTFGSSSMYWVRQAPGKGLEWVSGIGYYSYSTSYADSVKGRFTISRDNSKNTLYLQMNSLRAEDTAVYYCARGYPHHYFDYWGQGTLVTVSS VL: not shown |

— patent US20210238298A1 (ALLIGATOR BIOSCIENCE, published 2021)
